We go through 18 molecules from US20220257733A1, “ANTIGENIC POLYPEPTIDES AND METHODS OF USE THEREOF” (AGENUS INC., priority 2019, published 2022).

One assay has as its target HLA A*02:01 (Homo sapiens, UniProt P04439, D140Y/D185E/D98H/E176V/E277Q/G131W/G231S/I119V/I121R/I166T/I218V/L300P/L318F/N151K/N90K/P208A/P217A/Q86G/Q94H/R138H/R169H/T345S). Nature of the assay: AlphaScreen assay of peptide binding to HLA A*02:01. Also noted: key to Kd in nM A*02:01: NT means that binding was not tested; NB means no binding was detected; LB stands for low binding and indicates that while some binding was observed, it was below the level that would allow accurate calculation of a Kd. To be noted: biotinylated HLA A*02:01 with excess β2m, Michaelis-Menten fit. As to the method:
(§1) An AlphaScreen® assay was used to evaluate the binding of peptides to HLA molecules. Donor beads conjugated with streptavidin, and acceptor beads conjugated with the anti-human HLA class I antibody W6/32, were used to assess peptide binding. Biotinylated HLAs (A*02:01, B*07:02, C*07:01, or C*07:02) were mixed with a fixed excess of β2m and the mixtures added to each well of a 384-well microplate. Serial dilutions of the synthesized phosphopeptides were added to the wells, and the resultant HLA/β2/peptide mixtures were incubated overnight at 18° C. W6/32 conjugated acceptor beads were subsequently added to the wells, and the mixture was incubated for 1 hour at 21° C. Streptavidin conjugated donor beads were then added to the wells, and the mixture was incubated for a further 1 hour at 21° C.
(§2) The microplate was read using the PerkinElmer® plate reader, and data were plotted using the Michaelis-Menten equation to determine the Kd for each phosphopeptide.
Table 5 lists the Kd of each of the selected phosphopeptides to the indicated HLAs (A*02:01, B*07:02, C*07:01, or C*07:02). NT means that binding was not tested. NB means no binding was detected. […] In each case, the phosphopeptides bound as indicated below.

The target in assay [1] is T1, Biotinylated HLA-A*02:01 with β2m (human, biotinylated (site not stated)).
T1 construct: MHC class I heavy chain mixed with excess β2m
Nature of the assay: AlphaScreen; biotinylated HLA + excess β2m + peptide dilutions, W6/32 acceptor beads, streptavidin donor beads. How it is done: as §1, §2
A general note: In Alpha technology, singlet oxygen from a donor bead excites a nearby acceptor bead.

Assay [2] deals with T1, Biotinylated HLA-A*02:01 with β2m. Nature of the assay: AlphaScreen; biotinylated HLA + excess β2m + peptide dilutions, W6/32 acceptor beads, streptavidin donor beads; Michaelis-Menten fit. How it is done:
as §1, §2

Non-standard residues stand in square brackets, D forms with d. No end group written: not given here. pT = C[C@@H](OP(=O)(O)O)[C@H](N)C(=O)O; pS = N[C@@H](COP(=O)(O)O)C(=O)O

For the molecule `CC[C@H](C)[C@H](NC(=O)[C@H](Cc1ccc(O)cc1)NC(=O)[C@H](COP(=O)(O)O)NC(=O)[C@H](CC(C)C)NC(=O)[C@H](CC(C)C)NC(=O)[C@@H](N)CCCCN)C(=O)N[C@@H](CCC(N)=O)C(=O)N[C@@H](CCCNC(=N)N)C(=O)N[C@@H](CC(C)C)C(=O)O` [compound 433], the Kd at HLA A*02:01 is 188 nM.
In the case of `CC(C)C[C@H](NC(=O)[C@H](CCC(=O)O)NC(=O)[C@H](CCC(=O)O)NC(=O)[C@H](CC(C)C)NC(=O)[C@H](COP(=O)(O)O)NC(=O)CNC(=O)[C@H](Cc1c[nH]cn1)NC(=O)[C@H](Cc1ccccc1)NC(=O)[C@H](CC(C)C)NC(=O)[C@@H](N)CCCCN)C(=O)O` [compound 424], the Kd on HLA A*02:01 was 203 nM.
Turning to `CC[C@H](C)[C@H](NC(=O)[C@@H]1CCCN1C(=O)[C@H](COP(=O)(O)O)NC(=O)[C@H](CCCNC(=N)N)NC(=O)[C@@H]1CCCN1C(=O)[C@@H](N)CO)C(=O)N[C@@H](CO)C(=O)N1CCC[C@H]1C(=O)N[C@@H](CCC(=O)O)C(=O)N[C@@H](CC(C)C)C(=O)O` [compound 1179], on HLA A*02:01, the “Kd in nM A*02:01” value is “NB”.
Regarding `CSCC[C@H](NC(=O)[C@H](CC(C)C)NC(=O)[C@@H](N)CCC(N)=O)C(=O)N[C@H](C(=O)N[C@@H](CC(C)C)C(=O)N[C@@H](CCC(=O)O)C(=O)N[C@@H](CC(N)=O)C(=O)N[C@@H](CCCCN)C(=O)N[C@@H](CC(C)C)C(=O)O)[C@@H](C)OP(=O)(O)O` [compound 654], the Kd on HLA A*02:01 is 231 nM.
Turning to `CC(C)C[C@H](NC(=O)[C@H](COP(=O)(O)O)NC(=O)[C@H](CCCNC(=N)N)NC(=O)[C@H](CCCCN)NC(=O)[C@H](CO)NC(=O)[C@H](CC(C)C)NC(=O)[C@H](Cc1ccccc1)NC(=O)[C@@H]1CCCN1C(=O)[C@@H](N)CO)C(=O)O` [compound 1157], the “Kd in nM A*02:01” value at HLA A*02:01 is reported as “NB”.
For `CC[C@H](C)[C@H](NC(=O)[C@H](CO)NC(=O)[C@H](CCCNC(=N)N)NC(=O)[C@H](COP(=O)(O)O)NC(=O)[C@H](CC(C)C)NC(=O)[C@@H](N)Cc1ccccc1)C(=O)N1CCC[C@H]1C(=O)N[C@@H](CO)C(=O)N[C@@H](CC(C)C)C(=O)O` [compound 228], the dissociation constant (Kd) at HLA A*02:01 is 641 nM.
Consider `CC(C)C[C@H](NC(=O)[C@@H](NC(=O)[C@H](CC(C)C)NC(=O)[C@@H]1CCCN1C(=O)[C@H](COP(=O)(O)O)NC(=O)[C@@H]1CCCN1C(=O)[C@@H](NC(=O)[C@H](CCCNC(=N)N)NC(=O)[C@@H]1CCCN1C(=O)[C@@H](N)CCC(N)=O)[C@@H](C)O)C(C)C)C(=O)O` [compound 657], for which the “Kd in nM A*02:01” value at HLA A*02:01 is “NB”.
Consider `CC(C)[C@H](NC(=O)CNC(=O)[C@@H]1CCCN1C(=O)[C@@H]1CCCN1C(=O)[C@@H](NC(=O)[C@H](CCCNC(=N)N)NC(=O)[C@@H]1CCCN1C(=O)[C@H](C)N)[C@@H](C)OP(=O)(O)O)C(=O)N[C@H](C(=O)N[C@@H](Cc1ccccc1)C(=O)O)[C@@H](C)O` [compound 120], for which the “Kd in nM A*02:01” value on HLA A*02:01 is listed as “NB”.

B1: SPFLSKRsL (peptide)
peptide: SPFLSKR[pS]L
notes: predicted HLA-B*07:02
In the case of B1, the binding result in assay [1] is on record as “no binding”.

B2: SPRsPISPEL (peptide)
peptide: SPR[pS]PISPEL
notes: predicted HLA-B*07:02
Regarding B2, in assay [1], the binding result was “no binding”.

B3: QLMtLENKL (peptide)
peptide: QLM[pT]LENKL
notes: predicted HLA-A*02:01
For the molecule B3, in assay [2], the Kd stood at 231 nM.

B4: YRLsPEPTPL (peptide)
peptide: YRL[pS]PEPTPL
notes: predicted HLA-C*07:02 (not tested on it)
Consider B4, for which, in assay [1], the binding result is listed as “no binding”.

B5: KLLsYIQRL (peptide)
peptide: KLL[pS]YIQRL
notes: predicted HLA-A*02:01
As for B5, the Kd in assay [2] was 188 nM.

B6: APRtPPGVTF (peptide)
peptide: APR[pT]PPGVTF
notes: predicted HLA-B*07:02
Take B6: the binding result in assay [1] is reported as “no binding”.

B7: HRVsVILKL (peptide)
peptide: HRV[pS]VILKL
notes: predicted HLA-B*14:01 (not among the HLAs tested)
Consider B7, for which, in assay [1], the binding result is recorded as “no binding”.

B8: KLFHGsLEEL (peptide)
peptide: KLFHG[pS]LEEL
notes: predicted HLA-A*02:01
Turning to B8, the dissociation constant (Kd) in assay [2] was 203 nM.

B9: FLsRSIPSL (peptide)
peptide: FL[pS]RSIPSL
notes: predicted HLA-A*02:01
Turning to B9, the Kd in assay [2] amounted to 641 nM.

B10: SRKsFVFEL (peptide)
peptide: SRK[pS]FVFEL
notes: predicted HLA-B*08:01 (not among the HLAs tested)
Consider B10, for which, in assay [1], the binding result is “no binding”.

For orientation: Kd means a measure of binding affinity in units of concentration.
